# Reference: patent US20220396819A1, “METHOD FOR PRODUCING PEPTIDE HAVING PHYSIOLOGICAL ACTIVITY, AND PEPTIDE COMPRISING SHORT LINKER” (priority 2019, published 2022)
# Entries after “also recorded” stand apart in the source; their conditions may differ. Read-outs that look alike come from different tables or passages of the source. Positions of bridges follow the written chain, without caps; N, C: chain ends. No end group written: not given here.
# Assays:
# VEGFR [1] = target: T1, VEGFR (Homo sapiens, UniProt P35968); experiment: VEGF inhibitory ability, luciferase assay in VEGFR/NFAT Reporter HEK293 cells; assay type: cell-based; details: for VEGF inhibitory activity (relative VEGF activity): Example 39, cell-free expression solution, FIGS. 71 and 72
# T1 construct: host or cells: VEGFR/NFAT Reporter HEK293 cells
# T1 sequence (P35968 20-1356): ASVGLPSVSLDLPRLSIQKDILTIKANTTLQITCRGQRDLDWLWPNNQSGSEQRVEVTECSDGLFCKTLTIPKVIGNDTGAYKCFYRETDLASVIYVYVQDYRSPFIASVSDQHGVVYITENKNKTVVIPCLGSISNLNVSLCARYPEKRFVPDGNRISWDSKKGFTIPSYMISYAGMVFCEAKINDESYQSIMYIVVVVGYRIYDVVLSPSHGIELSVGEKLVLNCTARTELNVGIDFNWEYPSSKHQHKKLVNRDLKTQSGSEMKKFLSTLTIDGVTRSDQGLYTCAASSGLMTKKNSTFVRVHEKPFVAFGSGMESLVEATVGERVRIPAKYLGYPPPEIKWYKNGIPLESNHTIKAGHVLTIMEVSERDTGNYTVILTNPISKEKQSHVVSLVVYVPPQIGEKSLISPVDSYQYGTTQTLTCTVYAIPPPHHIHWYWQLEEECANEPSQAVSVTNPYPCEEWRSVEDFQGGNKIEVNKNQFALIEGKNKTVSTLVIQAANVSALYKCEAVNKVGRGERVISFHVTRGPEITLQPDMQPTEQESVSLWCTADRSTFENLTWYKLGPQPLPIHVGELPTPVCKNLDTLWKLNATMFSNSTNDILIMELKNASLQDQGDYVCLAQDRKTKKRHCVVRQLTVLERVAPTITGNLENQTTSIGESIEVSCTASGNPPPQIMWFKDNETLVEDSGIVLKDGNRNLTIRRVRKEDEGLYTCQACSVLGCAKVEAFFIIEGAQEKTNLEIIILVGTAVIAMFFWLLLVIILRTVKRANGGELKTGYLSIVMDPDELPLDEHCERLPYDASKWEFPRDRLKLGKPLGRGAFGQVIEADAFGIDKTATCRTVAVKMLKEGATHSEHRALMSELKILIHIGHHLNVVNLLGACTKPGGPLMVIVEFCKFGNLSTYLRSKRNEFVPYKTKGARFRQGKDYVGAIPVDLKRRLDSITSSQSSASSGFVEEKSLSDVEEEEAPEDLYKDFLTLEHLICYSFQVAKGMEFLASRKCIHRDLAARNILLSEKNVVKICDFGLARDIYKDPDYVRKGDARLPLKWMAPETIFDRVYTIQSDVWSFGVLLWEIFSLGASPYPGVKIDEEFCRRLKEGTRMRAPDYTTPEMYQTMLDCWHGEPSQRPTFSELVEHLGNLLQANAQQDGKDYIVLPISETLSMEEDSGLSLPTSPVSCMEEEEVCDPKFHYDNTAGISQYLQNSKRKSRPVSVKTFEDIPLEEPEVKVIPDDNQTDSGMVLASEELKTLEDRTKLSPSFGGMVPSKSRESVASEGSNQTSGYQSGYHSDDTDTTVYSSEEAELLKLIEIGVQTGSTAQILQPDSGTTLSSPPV
# Method: The VEGF inhibitory ability of the VEGFR_D2-PAS heterodimer peptide was evaluated by luciferase assay. 40,000 cell/well VEGFR/NFAT Reporter HEK293 cells (BPS Bioscience) were seeded and incubated overnight in a 5% CO2 incubator at 37° C. The cells were incubated overnight in Assay medium (MEM medium (Nacalai Tesque), 1×MEM Non-Essential Amino Acids Solution (Thermo Fisher Scientific), 1 mM Sodium Pyruvate (Nacalai Tesque), 1% Penicillin-Streptomycin (Sigma Aldrich), and 0.3% FBS (Thermo Fisher Scientific)) to starvation. […] The cells were stimulated by culturing in a 5% CO2 incubator at 37° C. for 4 hours.
# One-Glo Luciferase Assay System (Promega) was used to detect the signal intensity. Medium supernatant in an amount of 50 μL was removed, 50 μL of One-Glo reagent was added, and the cells were lysed for 10 minutes at room temperature. The luminescence emitted from the cell lysate solution was detected with a Nivo plate reader (Perkin Elmer) to quantify the activation of the VEGFR-NFAT pathway, and the relative signal activity value for the sample without addition of evaluation compound was determined and used as relative receptor activity.
# The VEGF inhibitory ability of the cell-free expressed VEGFR_D2-PAS heterodimer peptide was evaluated by luciferase assay. 40,000 cell/well VEGFR/NFAT Reporter HEK293 cells (BPS Bioscience) were seeded and incubated overnight in a 5% CO2 incubator at 37° C. The cells were incubated overnight in Assay medium (MEM medium (Nacalai Tesque), 1×MEM Non-Essential Amino Acids Solution (Thermo Fisher Scientific), 1 mM Sodium Pyruvate (Nacalai Tesque), 1% Penicillin-Streptomycin (Sigma Aldrich), and 0.3% FBS (Thermo Fisher Scientific)) to starvation. To the Assay medium, 100 μL of 10 ng/mL human recombinant VEGF (R&D Systems) was added, and further, MAET-VEGFR_D2-PAS16, MAET-VEGFR_D2-PAS49-b, MAET-VEGFR_D2-PAS100-b, or a cell-free expression solution containing MAET-VEGFR_D2-GS16, or a cell-free expression solution with unexpressed peptide was added at a predetermined dilution factor, and 100 μL of the Assay medium was added to the cells. The cells were stimulated by culturing in a 5% CO2 incubator at 37° C. for 4 hours.
# The VEGF inhibitory ability of the VEGFR_D2-PAS heterodimer peptide linker variant was evaluated by luciferase assay. 40,000 cell/well VEGFR/NFAT Reporter HEK293 cells (BPS Bioscience) were seeded and incubated overnight in a 5% CO2 incubator at 37° C. The cells were incubated overnight in Assay medium (MEM medium (Nacalai Tesque), 1×MEM Non-Essential Amino Acids Solution (Thermo Fisher Scientific), 1 mM Sodium Pyruvate (Nacalai Tesque), 1% Penicillin-Streptomycin (Sigma Aldrich), and 0.3% FBS (Thermo Fisher Scientific)) to starvation. To the Assay medium, 10 ng/mL human recombinant VEGF (R&D Systems) was added, and further, a culture supernatant containing VEGFR_D2-PAS16, VEGFR_D2-PAS49, or VEGFR_D2-PAS100 at a predetermined concentration was added, and 100 μL of the Assay medium was added to the cells. The cells were stimulated by culturing in a 5% CO2 incubator at 37° C. for 4 hours. Note that VEGFR_D2-PAS16 was obtained according to the method described in Example 27.
# [2] = target: T2, thrombopoietin receptor c-Mpl (human, UniProt P40238 26-635); experiment: cell-based or functional assay
# T2 sequence (looked up): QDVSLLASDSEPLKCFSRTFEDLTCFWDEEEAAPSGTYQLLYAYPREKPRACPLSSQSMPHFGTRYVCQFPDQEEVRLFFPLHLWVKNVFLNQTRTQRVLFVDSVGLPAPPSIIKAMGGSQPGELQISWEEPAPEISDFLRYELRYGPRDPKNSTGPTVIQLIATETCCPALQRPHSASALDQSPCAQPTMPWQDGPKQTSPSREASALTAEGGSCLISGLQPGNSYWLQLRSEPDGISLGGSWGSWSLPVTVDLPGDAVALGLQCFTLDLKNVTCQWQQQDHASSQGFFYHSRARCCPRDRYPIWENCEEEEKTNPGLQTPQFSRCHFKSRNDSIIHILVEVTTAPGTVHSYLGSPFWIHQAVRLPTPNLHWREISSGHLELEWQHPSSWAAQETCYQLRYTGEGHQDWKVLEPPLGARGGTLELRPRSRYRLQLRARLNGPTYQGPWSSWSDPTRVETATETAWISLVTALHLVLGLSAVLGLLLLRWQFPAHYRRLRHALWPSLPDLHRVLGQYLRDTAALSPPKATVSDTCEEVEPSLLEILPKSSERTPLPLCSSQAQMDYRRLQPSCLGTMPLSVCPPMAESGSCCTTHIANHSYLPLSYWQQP
# EpoR = target: T3, EpoR (UniProt P19235 25-508, limits assumed); experiment: cell-based or functional assay
# T3 sequence (looked up): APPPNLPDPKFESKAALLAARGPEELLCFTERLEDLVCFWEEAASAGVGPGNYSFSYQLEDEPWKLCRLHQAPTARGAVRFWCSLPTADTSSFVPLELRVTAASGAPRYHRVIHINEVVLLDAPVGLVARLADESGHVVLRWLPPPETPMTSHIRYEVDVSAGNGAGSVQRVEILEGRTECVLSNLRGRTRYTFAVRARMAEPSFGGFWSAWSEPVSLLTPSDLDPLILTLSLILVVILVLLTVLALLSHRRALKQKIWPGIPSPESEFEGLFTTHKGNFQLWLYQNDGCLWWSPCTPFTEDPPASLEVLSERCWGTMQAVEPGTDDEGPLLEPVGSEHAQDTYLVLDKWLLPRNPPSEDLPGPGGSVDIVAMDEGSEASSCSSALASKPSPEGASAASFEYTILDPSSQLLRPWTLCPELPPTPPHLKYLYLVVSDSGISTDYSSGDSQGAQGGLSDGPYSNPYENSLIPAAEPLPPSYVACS
# VEGFR [3] = target: VEGFR (UniProt P35968 20-1356, limits assumed); experiment: cell-based or functional assay
# Chain of VEGFR (UniProt P35968 20-1356, limits assumed) (P35968 20-1356 limits assumed): as the sequence (P35968 20-1356) above
molecule,measurement,setting,value
"AETAGPTWCEDDWYYCWLFGTGGGGSGGGGSGGGGSGVCWEDSWGGEVCWLFGT (disulfide 9-16, 39-49) [AET-VEGFR_D2-GS16]",IC50,VEGFR [1],2.93 nM
"MAETAGPTWCEDDWYYCWLFGTAAPAAPAPAAPAAPAPVCWEDSWGGEVCWLFGT (disulfide 10-17, 40-50) [MAET-VEGFR_D2-PAS16]",VEGF inhibitory activity (relative VEGF activity),VEGFR [1]; 10 ng/mL VEGF,higher inhibitory activity than MAET-VEGFR_D2-PAS100-b; also recorded: higher inhibitory activity than MAET-VEGFR_D2-GS16
recombinant human TPO (from UniProt P40225 22-195) (ligand),"relative CREB phosphorylation level (pCREB ELISA, HEL cells, 100 ng/mL rhTPO)",[2],143%
"GGCADGPTLREWISFCGGGGGGSGGGGGCADGPTLREWISFCGG (disulfide 3-16, 29-42) [TPO2-GS8]","relative CREB phosphorylation level (pCREB ELISA, HEL cells)",[2],121%
TPO2-PAS100 (two disulfide bonds in the molecule) peptide: GGCADGPTLREWISFCGGAAPAAPAPAAPAAPAPAAPAAPAPAAPAAPAPAAPAAPAPAAPAAPAPAAPAAPAPAAPAAPAPAAPAAPAPAAPAAPAPAAPAAPAPAAPAAPAPAAPAGGCADGPTLREWISFCGG,"relative CREB phosphorylation level (pCREB ELISA, HEL cells)",[2],112%
"GGCADGPTLREWISFCGGAAPAAPAPGGCADGPTLREWISFCGG (disulfide 3-16, 29-42) [TPO2-PAS8]","relative CREB phosphorylation level (pCREB ELISA, HEL cells)",[2],136%
AET-EPO-PAS49 (two disulfide bonds in the molecule) peptide: AETGGLYACHMGPMTWVCQPLRGAAPAAPAPAAPAAPAPAAPAAPAPAAPAAPAPAAPAAPAPAAPAAPAPAGGLYACHMGPMTWVCQPLRG,EC50,EpoR,4.3 ng/mL
"AET-VEGFR_D2-GS16 (disulfide 9-16, 39-49) peptide: AETAGPTWCEDDWYYCWLFGTGGGGSGGGGSGGGGSGVCWEDSWGGEVCWLFGT",IC50,VEGFR [3],16 ng/mL
"AET-EPO-GS8 (disulfide 9-18, 37-46) peptide: AETGGLYACHMGPMTWVCQPLRGGGGGSGGGGGLYACHMGPMTWVCQPLRG",EC50,EpoR,0.53 ng/mL
"AET-EPO-GS22 (disulfide 9-18, 51-60) peptide: AETGGLYACHMGPMTWVCQPLRGGGGGSGGGGSGGGGSGGGGSGGGGLYACHMGPMTWVCQPLRG",EC50,EpoR,1.3 ng/mL
TPO2-PAS49 (two disulfide bonds in the molecule) peptide: GGCADGPTLREWISFCGGAAPAAPAPAAPAAPAPAAPAAPAPAAPAAPAPAAPAAPAPAAPAAPAPAGGCADGPTLREWISFCGG,"relative CREB phosphorylation level (pCREB ELISA, HEL cells)",[2],131%
"AET-VEGFR_D2-PAS16 (disulfide 9-16, 39-49) peptide: AETAGPTWCEDDWYYCWLFGTAAPAAPAPAAPAAPAPVCWEDSWGGEVCWLFGT",IC50,VEGFR [3],1.5 ng/mL
MAETAGPTWCEDDWYYCWLFGTSAPSPSSAPASASAPASPASASASASPASSPASASSASPAASSASPASSVCWEDSWGGEVCWLFGT (MAET-VEGFR_D2-PAS49-b; DISULFID (10)..(17) Disulfid bridge between Cys-10 and Cys-17; DISULFID (73)..(83) Disulfid bridge between Cys-73 and Cys-83) MAETAGPTWCEDDWYYCWLFGTSAPSPSSAPASASAPASPASASASASPASSPASASSASPAASSASPASSVCWEDSWGGEVCWLFGT,VEGF inhibitory activity (relative VEGF activity),VEGFR [1]; 10 ng/mL VEGF,higher inhibitory activity than MAET-VEGFR_D2-PAS100-b
AET-EPO-PAS100 (two disulfide bonds in the molecule) peptide: AETGGLYACHMGPMTWVCQPLRGAAPAAPAPAAPAAPAPAAPAAPAPAAPAAPAPAAPAAPAPAAPAAPAPAAPAAPAPAAPAAPAPAAPAAPAPAAPAAPAPAAPAAPAPAAPAAPAPAAPAGGLYACHMGPMTWVCQPLRG,EC50,EpoR,6.6 ng/mL
AET-VEGFR_D2-PAS49 (two disulfide bonds in the molecule) peptide: AETAGPTWCEDDWYYCWLFGTAAPAAPAPAAPAAPAPAAPAAPAPAAPAAPAPAAPAAPAPAAPAAPAPAVCWEDSWGGEVCWLFGT,IC50,VEGFR [3],12 ng/mL
AET-VEGFR_D2-PAS100 (two disulfide bonds in the molecule) peptide: AETAGPTWCEDDWYYCWLFGTAAPAAPAPAAPAAPAPAAPAAPAPAAPAAPAPAAPAAPAPAAPAAPAPAAPAAPAPAAPAAPAPAAPAAPAPAAPAAPAPAAPAAPAPAAPAAPAPAAPAVCWEDSWGGEVCWLFGT,IC50,VEGFR [3],86 ng/mL
same,IC50,"VEGFR [1]; Example 46, culture supernatant, 10 ng/mL VEGF, 4 hours, Table 8",86 ng/mL
